Assay [1] has as its target T1, Mu HER3: CD33-[Murine HER3, residues 20-643]-TAG (murine, UniProt Q61526 20-643).
T1 construct: also called mu HER3-Tag; not shown: C-terminal TAG (e.g., FLAG TAG)
The assay is described as follows: SET, IgG vs soluble HER3-Tag. Summed up: (§1)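 Affinity measured by solution equilibrium titration, with read-out moved from classical ELISA to ECL-based detection for sensitivity. Titration data were fitted with customized fitting models.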

Assay [2] deals with T2, Rat HER3: CD33-[Rat HER3, residues 20-643]-TAG (rat, UniProt Q62799 20-643).
T2 construct: also called ra HER3-Tag; not shown: C-terminal TAG (e.g., FLAG TAG)
T2 sequence (Q62799 20-643): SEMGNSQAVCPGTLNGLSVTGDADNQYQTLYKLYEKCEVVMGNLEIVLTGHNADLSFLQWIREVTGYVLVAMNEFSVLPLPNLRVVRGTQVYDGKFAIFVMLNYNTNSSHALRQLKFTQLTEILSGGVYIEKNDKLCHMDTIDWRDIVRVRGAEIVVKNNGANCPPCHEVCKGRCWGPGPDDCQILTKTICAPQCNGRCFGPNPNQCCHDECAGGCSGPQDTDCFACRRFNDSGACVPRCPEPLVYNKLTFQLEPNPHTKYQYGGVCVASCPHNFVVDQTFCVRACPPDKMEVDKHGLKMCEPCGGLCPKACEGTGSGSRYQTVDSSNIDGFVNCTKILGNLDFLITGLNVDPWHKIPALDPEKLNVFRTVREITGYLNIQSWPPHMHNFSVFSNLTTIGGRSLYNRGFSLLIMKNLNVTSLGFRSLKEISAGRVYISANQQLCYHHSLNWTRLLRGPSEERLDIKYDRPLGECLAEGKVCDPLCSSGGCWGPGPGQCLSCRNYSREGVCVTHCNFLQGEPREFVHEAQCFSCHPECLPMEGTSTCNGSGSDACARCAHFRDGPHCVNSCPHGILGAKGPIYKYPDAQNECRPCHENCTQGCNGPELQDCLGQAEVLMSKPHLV
The assay is described as follows: SET, IgG vs soluble HER3-Tag. Summed up: as §1

The target of assay [3] is T3, Hu HER3: CD33-[Human HER3, residues 20-640]-TAG (human, UniProt P21860 20-640).
T3 construct: also called hu HER3-Tag; HER3-Tag; not shown: C-terminal TAG (e.g., FLAG TAG)
T3 sequence (P21860 20-640): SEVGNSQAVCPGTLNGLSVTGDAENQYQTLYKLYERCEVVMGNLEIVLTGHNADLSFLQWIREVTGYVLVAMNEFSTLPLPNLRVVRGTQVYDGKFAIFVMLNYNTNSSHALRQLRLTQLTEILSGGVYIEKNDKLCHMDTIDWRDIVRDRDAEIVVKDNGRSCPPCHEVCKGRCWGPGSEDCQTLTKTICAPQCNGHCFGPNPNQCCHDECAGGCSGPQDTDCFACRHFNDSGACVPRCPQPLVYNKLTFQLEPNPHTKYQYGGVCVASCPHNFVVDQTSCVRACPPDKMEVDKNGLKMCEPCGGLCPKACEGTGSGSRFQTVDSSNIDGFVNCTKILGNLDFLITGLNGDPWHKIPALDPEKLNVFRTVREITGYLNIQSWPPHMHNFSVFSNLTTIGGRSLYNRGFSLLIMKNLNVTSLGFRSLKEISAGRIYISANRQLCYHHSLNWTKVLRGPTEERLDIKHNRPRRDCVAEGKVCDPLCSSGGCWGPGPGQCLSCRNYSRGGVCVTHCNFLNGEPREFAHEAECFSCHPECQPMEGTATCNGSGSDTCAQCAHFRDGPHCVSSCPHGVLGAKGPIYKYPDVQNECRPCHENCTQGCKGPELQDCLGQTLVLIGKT
The assay is described as follows: SET, IgG vs soluble HER3-Tag. In outline: as §1

Assay [4] deals with T4, Cyno HER3: CD33-[Cyno HER3, residues 20-643]-TAG (cynomolgus, UniProt G7PIG5 20-643).
T4 construct: also called cy HER3-Tag; not shown: C-terminal TAG (e.g., FLAG TAG)
T4 sequence (G7PIG5 entry or part of it): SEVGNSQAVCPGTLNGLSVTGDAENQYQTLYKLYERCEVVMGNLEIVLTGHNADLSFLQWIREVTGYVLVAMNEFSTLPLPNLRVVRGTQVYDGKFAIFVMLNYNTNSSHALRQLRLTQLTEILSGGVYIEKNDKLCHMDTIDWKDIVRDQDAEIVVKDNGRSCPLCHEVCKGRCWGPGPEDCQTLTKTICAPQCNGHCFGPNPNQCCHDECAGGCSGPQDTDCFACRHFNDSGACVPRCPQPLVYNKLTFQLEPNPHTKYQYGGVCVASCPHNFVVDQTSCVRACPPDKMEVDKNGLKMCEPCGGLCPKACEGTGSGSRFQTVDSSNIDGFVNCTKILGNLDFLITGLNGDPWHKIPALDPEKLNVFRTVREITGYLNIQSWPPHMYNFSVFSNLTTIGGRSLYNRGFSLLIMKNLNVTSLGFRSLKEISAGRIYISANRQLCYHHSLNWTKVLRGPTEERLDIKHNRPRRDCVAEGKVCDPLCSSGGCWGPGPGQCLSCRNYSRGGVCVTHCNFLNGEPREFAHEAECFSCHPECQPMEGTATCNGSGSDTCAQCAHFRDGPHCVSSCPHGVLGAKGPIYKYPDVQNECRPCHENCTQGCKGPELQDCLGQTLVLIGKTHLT
The assay is described as follows: SET, IgG vs soluble HER3-Tag. Summed up: as §1

Assay [5] concerns the target T5, Human HER3, endogenous, on human cancer cell lines (SK-Br-3, MCF7, BT-474) (human, UniProt P21860 20-1342). The assay is described as follows: cell-based or functional assay.
In assay [6] the target is T5, Human HER3, endogenous, on human cancer …. Description: cell-based or functional assay. This is another data set of the same source.
Assay [7] shares this target. The assay is described as follows: cell-based or functional assay. This is another data set of the same source.
Assay [8] has as its target T6, HER3 on B16-F10 cells (UniProt Q61526 20-1339).
T6 construct: whole, on cells
Description: FACS titration on B16-F10 cells.

Assay [9] has as its target T5, Human HER3, endogenous, on human cancer …. The assay is described as follows: FACS titration on SK-Br-3 cells. Here is the method:
The binding of antibodies to endogenous human antigen expressed on human cancer cells was accessed by FACS. In order to determine antibody EC₅₀ values SK-Br-3 cells were harvested with accutase and diluted to 1×10⁶ cells/mL in FACS buffer (PBS/3% FBS/0.2% NaN₃). 1×10⁵ cells/well were added to each well of a 96-well plate (Nunc) and centrifuged at 210 g for 5 minutes at 4° C. before removing the supernatant. Serial dilutions of test antibodies (diluted in 1:4 dilution steps with FACS buffer) were added to the pelleted cells and incubated for 1 hour on ice. The cells were washed and pelleted three times with 100 μL FACS buffer. PE conjugated goat anti-human IgG (Jackson ImmunoResearch) diluted 1/200 with FACS buffer were added to the cells and incubated on ice for 1 hour. Additional washing steps were performed three times with 100 μL FACS buffer followed by centrifugation steps at 210 g for 5 minutes at 4° C. Finally, cells were resuspended in 200 μL FACS buffer and fluorescence values were measured with a FACSArray (BD Biosciences). The amount of cell surface bound anti-HER3 antibody was assessed by measuring the mean channel fluorescence.
The ability of the identified antibodies to bind HER3 expressing cells was determined by calculating EC₅₀ values for their binding to the HER2 amplified cell line SK-Br-3 (see FIG. 2 and Table 4).

In assay [10] the target is T7, HER3 on JTC12 cells.
T7 construct: whole, on cells
The assay is described as follows: FACS titration on JTC12 cells.

T5 sequence (P21860 20-1342): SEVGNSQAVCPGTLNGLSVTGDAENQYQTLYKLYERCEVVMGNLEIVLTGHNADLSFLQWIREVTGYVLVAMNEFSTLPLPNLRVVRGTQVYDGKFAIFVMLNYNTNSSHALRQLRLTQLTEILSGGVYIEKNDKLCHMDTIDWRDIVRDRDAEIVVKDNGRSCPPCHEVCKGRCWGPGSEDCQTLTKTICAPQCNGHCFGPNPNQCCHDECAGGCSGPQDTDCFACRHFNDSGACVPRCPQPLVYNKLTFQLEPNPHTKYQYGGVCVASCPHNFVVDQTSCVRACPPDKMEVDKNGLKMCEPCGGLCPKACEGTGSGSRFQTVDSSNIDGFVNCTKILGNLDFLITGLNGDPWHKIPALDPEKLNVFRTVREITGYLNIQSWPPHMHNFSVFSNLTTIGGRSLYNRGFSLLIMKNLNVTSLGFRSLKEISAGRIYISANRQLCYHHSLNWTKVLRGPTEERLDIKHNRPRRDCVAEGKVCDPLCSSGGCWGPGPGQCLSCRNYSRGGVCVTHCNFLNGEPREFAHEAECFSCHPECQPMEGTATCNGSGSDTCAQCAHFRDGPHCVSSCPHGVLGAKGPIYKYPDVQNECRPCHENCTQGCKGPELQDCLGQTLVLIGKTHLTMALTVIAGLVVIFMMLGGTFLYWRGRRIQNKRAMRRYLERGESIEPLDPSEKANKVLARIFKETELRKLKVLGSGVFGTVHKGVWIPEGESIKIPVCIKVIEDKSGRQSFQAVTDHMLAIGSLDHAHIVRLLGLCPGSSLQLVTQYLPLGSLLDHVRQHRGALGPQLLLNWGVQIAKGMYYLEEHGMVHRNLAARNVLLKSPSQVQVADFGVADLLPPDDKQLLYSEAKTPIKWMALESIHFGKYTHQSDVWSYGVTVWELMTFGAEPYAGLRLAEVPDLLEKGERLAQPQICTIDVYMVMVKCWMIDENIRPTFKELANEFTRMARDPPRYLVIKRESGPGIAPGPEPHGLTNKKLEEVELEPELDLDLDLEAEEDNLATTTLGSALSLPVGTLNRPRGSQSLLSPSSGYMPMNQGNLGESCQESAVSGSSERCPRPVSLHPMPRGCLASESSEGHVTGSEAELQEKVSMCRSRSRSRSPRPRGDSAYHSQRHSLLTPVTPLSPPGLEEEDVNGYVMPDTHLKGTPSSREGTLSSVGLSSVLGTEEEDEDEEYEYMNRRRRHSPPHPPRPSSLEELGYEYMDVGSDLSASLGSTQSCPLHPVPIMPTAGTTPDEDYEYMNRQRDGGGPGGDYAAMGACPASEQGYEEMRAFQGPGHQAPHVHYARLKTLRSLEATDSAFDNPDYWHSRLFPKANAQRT
T1 sequence (Q61526 20-643): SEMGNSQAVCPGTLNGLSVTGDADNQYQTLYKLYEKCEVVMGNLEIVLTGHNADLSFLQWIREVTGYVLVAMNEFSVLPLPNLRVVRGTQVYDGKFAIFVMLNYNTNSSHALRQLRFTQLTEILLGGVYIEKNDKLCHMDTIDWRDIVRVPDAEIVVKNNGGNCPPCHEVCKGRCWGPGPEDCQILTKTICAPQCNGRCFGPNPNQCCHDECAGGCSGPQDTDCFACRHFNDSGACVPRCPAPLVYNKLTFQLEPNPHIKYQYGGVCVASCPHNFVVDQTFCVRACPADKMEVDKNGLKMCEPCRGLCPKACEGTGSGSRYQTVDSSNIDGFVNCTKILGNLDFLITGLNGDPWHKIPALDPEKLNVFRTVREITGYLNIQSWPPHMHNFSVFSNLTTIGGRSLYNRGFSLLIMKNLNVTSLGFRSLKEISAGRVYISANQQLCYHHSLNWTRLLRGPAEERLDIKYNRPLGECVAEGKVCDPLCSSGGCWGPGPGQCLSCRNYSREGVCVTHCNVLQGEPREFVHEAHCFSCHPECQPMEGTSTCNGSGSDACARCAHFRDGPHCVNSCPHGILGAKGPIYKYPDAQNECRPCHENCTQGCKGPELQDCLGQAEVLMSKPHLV

B1: MOR12509 (antibody, human IgG1, kappa, V domains shown)
VH: QVQLVQSGAEVKKPGESLKISCKGSGYSFTNSWVAWVRQMPGKGLEWMGIIYPGNSDTIYSPSFQGQVTISADKSISTAYLQWSSLKASDTAMYYCARVHIIQPPSAWSYNAMDVWGQGTLVTVSS
VL: DIQMTQSPSSLSASVGDRVTITCRASQSITHYLNWYQQKPGKAPKLLIFGASNLQSGVPSRFSGSGSGTDFTLTISSLQPEDFATYYCQQAFVDPSTTFGQGTKVEIKR
notes: tested as IgG
For the molecule B1, the Kd (in general, a measure of binding affinity in units of concentration) in [1] worked out at 0.25 nM. In assay [2], binding was put at a Kd of 0.48 nM. The molecule further returned a Kd in assay [3] of 0.078 nM. This molecule showed a Kd in assay [4] of 0.32 nM. Moreover, in assay [5], the “BT474 pHER3 % inhibition” value came out at 84%, the “MCF7 pHER3 % inhibition” value turned out to be 70%, the “MCF7 pHER3 IC50” value was found to be 712 pM and the “SK-Br-3 pHER3 % inhibition” value was found to be 76%. The “SK-Br-3 pHER3 IC50” value in [5] amounted to 483 pM. In addition, in assay [6], the “MCF7 proliferation % inhibition” value is 24%, the “MCF7 proliferation IC50” value was 1.47 nM, the “SK-Br-3 proliferation % inhibition” value stood at 45% and the “SK-Br-3 proliferation IC50” value turned out to be 0.572 nM.

B2: MOR13871 (antibody, human IgG1, kappa, V domains shown)
VH: QVQLVQSGAEVKKPGESLKISCKGSGYSFSNYWIAWVRQMPGKGLEWMGIIYPGSSDTIYSPSFQGQVTISADKSISTAYLQWSSLKASDTAMYYCARVHIIQPPSAWSYNAMDVWGQGTLVTVSS
VL: DIQMTQSPSSLSASVGDRVTITCRASQSISTYLNWYQQKPGKAPKLLIFGASNLQSGVPSRFSGSGSGTDFTLTISSLQPEDFATYYCQQSITELFTFGQGTKVEIKR
notes: tested as IgG
In assay [3], B2 displayed a Kd of 0.193 nM. In assay [5], the “BT474 pHER3 % inhibition” value turned out to be 68%, the “BT474 pHER3 IC50” value is 608 pM, the “MCF7 pHER3 % inhibition” value was 74% and the “MCF7 pHER3 IC50” value is 43 pM. In [5], the “SK-Br-3 pHER3 % inhibition” value came out at 83% and the “SK-Br-3 pHER3 IC50” value came out at 105 pM. Besides, in assay [7], the “BT-474 pAkt (S473) % inhibition” value was found to be 83%, the “BT-474 pAkt (S473) IC50” value stood at 1630 pM, the “SK-Br-3 pAkt (S473) % inhibition” value worked out at 93% and the “SK-Br-3 pAkt (S473) IC50” value was determined as 97 pM. Besides, in assay [6], the “BT-474 proliferation % inhibition” value was 43%, the “BT-474 proliferation IC50” value is 1 nM, the “MCF7 proliferation % inhibition” value is 58% and the “SK-Br-3 proliferation % inhibition” value was 32%. Besides, in assay [6], the “SK-Br-3 proliferation IC50” value worked out at 1.29 nM.

B3: MOR12510 (antibody, human IgG1, kappa, V domains shown)
VH: QVQLVQSGAEVKKPGESLKISCKGSGYSFTNSWVAWVRQMPGKGLEWMGIIYPGNSDTIYSPSFQGQVTISADKSISTAYLQWSSLKASDTAMYYCARVHIIQPPSAWSYNAMDVWGQGTLVTVSS
VL: DIQMTQSPSSLSASVGDRVTITCRASQSISTYLNWYQQKPGKAPKLLIFGASNLQSGVPSRFSGSGSGTDFTLTISSLQPEDFATYYCQQDIDEPWTFGQGTKVEIKR
notes: tested as IgG
B3: the affinity in [1], expressed as Kd, was 0.2 nM. Binding in assay [2] was characterised by a dissociation constant (Kd) of 0.75 nM. The molecule further came in with a Kd in [3] of 0.055 nM. In assay [4], the Kd stood at 0.4 nM. In assay [5], the “BT474 pHER3 % inhibition” value was 85%, the “BT474 pHER3 IC50” value was 34 pM, the “MCF7 pHER3 % inhibition” value came out at 73% and the “MCF7 pHER3 IC50” value is 450 pM. In [5], the “SK-Br-3 pHER3 % inhibition” value was determined as 78% and the “SK-Br-3 pHER3 IC50” value amounted to 157 pM. For the same molecule, in assay [6], the “MCF7 proliferation % inhibition” value amounted to 25%, the “MCF7 proliferation IC50” value turned out to be 0.483 nM, the “SK-Br-3 proliferation % inhibition” value turned out to be 44% and the “SK-Br-3 proliferation IC50” value amounted to 0.355 nM.

B4: MOR14536 (antibody, human IgG1, kappa, V domains shown)
VH: EVQLVQSGAEVKKPGESLKISCKGSGYSFSNYWIAWVRQMPGKGLEWMGIIYPGQSDTIYSPSFQGQVTISADKSISTAYLQWSSLKASDTAMYYCARVHIIQPPSAWSYNAMDVWGQGTLVTVSS
VL: DIQMTQSPSSLSASVGDRVTITCRASQSISTYLNWYQQKPGKAPKLLIYGASNLQSGVPSRFSGSGSGTDFTLTISSLQPEDFATYYCQQSITELFTFGQGTKVEIKR
notes: tested as IgG
In the case of B4, the results for the EC50 in [8], in assay [9] and in assay [10] were 0.625 nM, 1.27 nM and 1.36 nM, respectively. The Kd in [1] was 0.029 nM; in [2], 0.064 nM; in assay [3], 0.072 nM; in assay [4], 0.044 nM. In [5], the “MCF7 pHER3 % inhibition” value is 83%. Moreover, the “MCF7 pHER3 IC50” value in assay [5] came out at 379 pM. The “SK-Br-3 pHER3 % inhibition” value in assay [5] was 76%. Moreover, in assay [5], the “SK-Br-3 pHER3 IC50” value stood at 239 pM. For the same molecule, the “SK-Br-3 proliferation % inhibition” value in assay [6] was 56%. In addition, the “SK-Br-3 proliferation IC50” value in assay [6] was determined as 0.181 nM.

B5: MOR14535 (antibody, human IgG1, kappa, V domains shown)
VH: EVQLVQSGAEVKKPGESLKISCKGSGYSFTTTWVAWVRQMPGKGLEWMGIIYPGLSDTIYSPSFQGQVTISADKSISTAYLQWSSLKASDTAMYYCARVHIIQPPSAWSYNAMDVWGQGTLVTVSS
VL: DIQMTQSPSSLSASVGDRVTITCRASQSISTYLNWYQQKPGKAPKLLIYGASNLQSGVPSRFSGSGSGTDFTLTISSLQPEDFATYYCQQSITELFTFGQGTKVEIKR
notes: tested as IgG
For B5, the results for the EC50 in assay [8], in assay [9] and in assay [10] were 0.524 nM, 2.08 nM and 65.1 nM, respectively. Moreover, the Kd in assay [1] was 0.125 nM; in assay [2], 0.315 nM; in assay [3] it was 0.235 nM; in [4], 0.215 nM. In addition, the “MCF7 pHER3 % inhibition” value in assay [5] was 73%. Moreover, in assay [5], the “MCF7 pHER3 IC50” value was determined as 533 pM. The “SK-Br-3 pHER3 % inhibition” value in [5] is 76%. Further, the “SK-Br-3 pHER3 IC50” value in assay [5] came out at 231 pM. The “SK-Br-3 proliferation % inhibition” value in assay [6] stood at 66%. For the same molecule, the “SK-Br-3 proliferation IC50” value in assay [6] was 0.271 nM.

Values taken from patent publication US20130273029A1 (Novartis, published 2013).
